In article PMC4725817 (Scientific Reports, 2016):

Experiments:
[1] = molecular target: T1, EBOV glycoprotein lacking the transmembrane domain (Kikwit) (Zaire ebolavirus, Kikwit-95, UniProt P87666); assay: ELISA; settings: both partners purified
[2] = molecular target: T1, EBOV glycoprotein lacking the …; assay: cell-based or functional assay

T1 sequence (P87666 33-650): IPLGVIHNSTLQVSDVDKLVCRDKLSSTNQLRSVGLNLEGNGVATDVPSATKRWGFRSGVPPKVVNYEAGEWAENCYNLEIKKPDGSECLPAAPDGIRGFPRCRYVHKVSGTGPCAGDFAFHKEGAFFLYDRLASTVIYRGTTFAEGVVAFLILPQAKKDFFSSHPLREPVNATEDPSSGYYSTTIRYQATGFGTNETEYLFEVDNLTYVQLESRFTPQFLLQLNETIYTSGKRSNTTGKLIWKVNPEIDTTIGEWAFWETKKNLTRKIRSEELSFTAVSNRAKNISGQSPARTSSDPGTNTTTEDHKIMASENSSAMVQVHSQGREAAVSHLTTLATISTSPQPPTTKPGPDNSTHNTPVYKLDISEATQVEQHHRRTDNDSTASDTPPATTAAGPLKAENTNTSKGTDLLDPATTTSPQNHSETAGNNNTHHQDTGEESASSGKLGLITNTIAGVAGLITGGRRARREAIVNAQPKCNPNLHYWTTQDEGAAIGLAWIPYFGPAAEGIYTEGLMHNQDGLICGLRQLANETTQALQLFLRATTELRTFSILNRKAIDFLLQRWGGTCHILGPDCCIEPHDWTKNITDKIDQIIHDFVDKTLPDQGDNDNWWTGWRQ

B1: KZ52 (human EBOV mAb, monospecific IgG1) (antibody, V domains shown)
VH: EVQLLESGGGLVKPGGSLRLSCAASGFTLINYRMNWVRQAPGKGLEWVSSISSSSSYIHYADSVKGRFTISRDNAENSLYLQMNSLRAEDTAVYYCVREGPRATGYSMADVFDIWGQGTMVTVSS
VL: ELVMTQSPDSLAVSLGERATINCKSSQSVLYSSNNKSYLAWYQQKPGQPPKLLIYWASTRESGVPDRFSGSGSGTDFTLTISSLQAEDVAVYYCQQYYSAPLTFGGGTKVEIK
notes: also called KZ52 IgG1; monospecific KZ52
With B1 the EC50 [1] was 0.01 nM and the “IC50 of neutralisation of VSV-GP_(EBOV), infection of Vero cells (eGFP)” value [2] was 2.7 nM.
